Test results as given in IntAct's records for PubMed 17267444.

Assays:
[1] = target: scar2_arath SCAR2 (UniProt Q5XPJ9)
[2] = target: spk1_arath SPK1 (UniProt Q8SAB7)
[3] = target: scarl_arath WAVE5 (UniProt Q5XPK0)
[4] = target: scar1_arath SCAR1 (UniProt Q6AWX6)
scar1_arath SCAR1, sequence (Q6AWX6 whole entry): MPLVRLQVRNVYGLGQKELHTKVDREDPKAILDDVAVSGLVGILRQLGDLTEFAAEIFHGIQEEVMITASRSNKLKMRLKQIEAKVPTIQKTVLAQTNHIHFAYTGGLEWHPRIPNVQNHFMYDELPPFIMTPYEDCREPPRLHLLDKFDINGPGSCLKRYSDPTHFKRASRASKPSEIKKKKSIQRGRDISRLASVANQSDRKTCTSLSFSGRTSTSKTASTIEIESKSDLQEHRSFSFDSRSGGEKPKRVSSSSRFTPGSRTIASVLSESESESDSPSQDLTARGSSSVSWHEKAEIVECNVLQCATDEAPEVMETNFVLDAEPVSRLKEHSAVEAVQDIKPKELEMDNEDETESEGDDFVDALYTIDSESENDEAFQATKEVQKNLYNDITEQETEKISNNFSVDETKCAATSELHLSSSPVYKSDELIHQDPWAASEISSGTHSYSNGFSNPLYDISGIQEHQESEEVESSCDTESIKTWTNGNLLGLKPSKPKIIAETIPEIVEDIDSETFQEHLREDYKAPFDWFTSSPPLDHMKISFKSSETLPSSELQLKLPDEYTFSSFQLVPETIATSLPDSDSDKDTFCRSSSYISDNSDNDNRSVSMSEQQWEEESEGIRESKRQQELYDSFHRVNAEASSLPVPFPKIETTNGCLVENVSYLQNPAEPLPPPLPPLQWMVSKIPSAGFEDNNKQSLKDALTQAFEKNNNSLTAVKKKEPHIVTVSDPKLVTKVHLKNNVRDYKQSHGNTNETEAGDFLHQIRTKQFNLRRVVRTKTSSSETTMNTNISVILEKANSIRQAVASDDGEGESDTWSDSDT

Rac-like GTP-binding protein ARAC9 (Arabidopsis thaliana (Mouse-ear cress)), Q9XGU0 G27V, sequence (Q9XGU0 whole entry G27V): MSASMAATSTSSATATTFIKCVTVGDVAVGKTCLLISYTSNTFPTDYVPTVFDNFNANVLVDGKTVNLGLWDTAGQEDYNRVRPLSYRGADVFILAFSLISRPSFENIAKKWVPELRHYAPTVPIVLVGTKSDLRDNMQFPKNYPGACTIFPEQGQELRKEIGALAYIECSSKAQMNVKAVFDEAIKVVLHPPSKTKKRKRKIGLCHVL
Rac-like GTP-binding protein ARAC2 (Arabidopsis thaliana (Mouse-ear cress)), Q38903 T20D, sequence (Q38903 whole entry T20D): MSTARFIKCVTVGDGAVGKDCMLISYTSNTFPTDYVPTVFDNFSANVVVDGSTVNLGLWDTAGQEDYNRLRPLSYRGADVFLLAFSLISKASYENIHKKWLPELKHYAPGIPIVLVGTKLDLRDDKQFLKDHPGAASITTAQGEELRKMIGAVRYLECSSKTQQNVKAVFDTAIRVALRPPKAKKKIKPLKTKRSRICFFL
spk1_arath SPK1, sequence (Q8SAB7 whole entry): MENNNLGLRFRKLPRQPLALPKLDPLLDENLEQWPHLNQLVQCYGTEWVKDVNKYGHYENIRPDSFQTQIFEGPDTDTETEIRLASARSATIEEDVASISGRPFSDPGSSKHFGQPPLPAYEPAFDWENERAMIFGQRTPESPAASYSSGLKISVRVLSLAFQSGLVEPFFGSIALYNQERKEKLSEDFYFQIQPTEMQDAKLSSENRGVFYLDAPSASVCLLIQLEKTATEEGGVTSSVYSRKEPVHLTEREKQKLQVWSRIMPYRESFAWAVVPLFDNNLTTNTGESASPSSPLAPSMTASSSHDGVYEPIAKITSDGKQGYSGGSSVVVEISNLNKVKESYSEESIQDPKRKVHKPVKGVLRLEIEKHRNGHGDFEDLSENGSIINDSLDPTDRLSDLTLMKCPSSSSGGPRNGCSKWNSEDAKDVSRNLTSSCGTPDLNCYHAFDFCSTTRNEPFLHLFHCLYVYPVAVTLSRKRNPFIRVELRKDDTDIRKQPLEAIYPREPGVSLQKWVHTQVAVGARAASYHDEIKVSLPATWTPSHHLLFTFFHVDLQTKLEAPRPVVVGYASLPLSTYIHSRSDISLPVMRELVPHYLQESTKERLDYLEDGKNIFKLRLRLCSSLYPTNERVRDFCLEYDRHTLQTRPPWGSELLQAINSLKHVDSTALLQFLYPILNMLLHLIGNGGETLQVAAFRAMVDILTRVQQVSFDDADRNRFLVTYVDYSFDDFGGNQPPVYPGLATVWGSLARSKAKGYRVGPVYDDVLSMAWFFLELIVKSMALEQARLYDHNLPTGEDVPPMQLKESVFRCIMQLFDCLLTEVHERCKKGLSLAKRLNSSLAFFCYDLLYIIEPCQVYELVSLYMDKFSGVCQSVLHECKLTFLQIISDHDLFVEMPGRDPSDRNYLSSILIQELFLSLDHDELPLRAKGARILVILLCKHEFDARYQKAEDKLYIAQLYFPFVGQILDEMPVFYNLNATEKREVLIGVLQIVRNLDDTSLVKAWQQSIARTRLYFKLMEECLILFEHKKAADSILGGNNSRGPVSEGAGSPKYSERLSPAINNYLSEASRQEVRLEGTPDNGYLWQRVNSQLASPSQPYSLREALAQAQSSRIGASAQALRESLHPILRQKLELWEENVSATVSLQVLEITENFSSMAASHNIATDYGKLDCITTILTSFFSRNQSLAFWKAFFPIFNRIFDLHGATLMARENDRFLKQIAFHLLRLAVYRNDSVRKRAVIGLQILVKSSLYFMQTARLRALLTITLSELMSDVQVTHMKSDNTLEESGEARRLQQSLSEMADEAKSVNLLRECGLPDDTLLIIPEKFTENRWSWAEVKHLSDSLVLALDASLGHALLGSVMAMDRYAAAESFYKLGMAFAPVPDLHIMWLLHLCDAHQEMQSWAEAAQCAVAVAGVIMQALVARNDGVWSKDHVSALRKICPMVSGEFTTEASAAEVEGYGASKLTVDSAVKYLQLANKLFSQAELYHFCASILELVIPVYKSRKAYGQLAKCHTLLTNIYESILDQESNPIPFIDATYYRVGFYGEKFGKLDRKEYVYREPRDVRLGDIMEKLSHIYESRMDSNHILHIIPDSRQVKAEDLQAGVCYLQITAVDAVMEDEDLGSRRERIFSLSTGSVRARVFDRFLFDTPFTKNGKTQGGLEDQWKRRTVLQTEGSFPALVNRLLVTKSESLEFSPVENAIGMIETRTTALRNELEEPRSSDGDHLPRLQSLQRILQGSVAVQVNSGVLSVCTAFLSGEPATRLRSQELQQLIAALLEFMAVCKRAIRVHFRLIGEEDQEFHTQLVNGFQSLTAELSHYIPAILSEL
scar2_arath SCAR2, sequence (Q5XPJ9 whole entry): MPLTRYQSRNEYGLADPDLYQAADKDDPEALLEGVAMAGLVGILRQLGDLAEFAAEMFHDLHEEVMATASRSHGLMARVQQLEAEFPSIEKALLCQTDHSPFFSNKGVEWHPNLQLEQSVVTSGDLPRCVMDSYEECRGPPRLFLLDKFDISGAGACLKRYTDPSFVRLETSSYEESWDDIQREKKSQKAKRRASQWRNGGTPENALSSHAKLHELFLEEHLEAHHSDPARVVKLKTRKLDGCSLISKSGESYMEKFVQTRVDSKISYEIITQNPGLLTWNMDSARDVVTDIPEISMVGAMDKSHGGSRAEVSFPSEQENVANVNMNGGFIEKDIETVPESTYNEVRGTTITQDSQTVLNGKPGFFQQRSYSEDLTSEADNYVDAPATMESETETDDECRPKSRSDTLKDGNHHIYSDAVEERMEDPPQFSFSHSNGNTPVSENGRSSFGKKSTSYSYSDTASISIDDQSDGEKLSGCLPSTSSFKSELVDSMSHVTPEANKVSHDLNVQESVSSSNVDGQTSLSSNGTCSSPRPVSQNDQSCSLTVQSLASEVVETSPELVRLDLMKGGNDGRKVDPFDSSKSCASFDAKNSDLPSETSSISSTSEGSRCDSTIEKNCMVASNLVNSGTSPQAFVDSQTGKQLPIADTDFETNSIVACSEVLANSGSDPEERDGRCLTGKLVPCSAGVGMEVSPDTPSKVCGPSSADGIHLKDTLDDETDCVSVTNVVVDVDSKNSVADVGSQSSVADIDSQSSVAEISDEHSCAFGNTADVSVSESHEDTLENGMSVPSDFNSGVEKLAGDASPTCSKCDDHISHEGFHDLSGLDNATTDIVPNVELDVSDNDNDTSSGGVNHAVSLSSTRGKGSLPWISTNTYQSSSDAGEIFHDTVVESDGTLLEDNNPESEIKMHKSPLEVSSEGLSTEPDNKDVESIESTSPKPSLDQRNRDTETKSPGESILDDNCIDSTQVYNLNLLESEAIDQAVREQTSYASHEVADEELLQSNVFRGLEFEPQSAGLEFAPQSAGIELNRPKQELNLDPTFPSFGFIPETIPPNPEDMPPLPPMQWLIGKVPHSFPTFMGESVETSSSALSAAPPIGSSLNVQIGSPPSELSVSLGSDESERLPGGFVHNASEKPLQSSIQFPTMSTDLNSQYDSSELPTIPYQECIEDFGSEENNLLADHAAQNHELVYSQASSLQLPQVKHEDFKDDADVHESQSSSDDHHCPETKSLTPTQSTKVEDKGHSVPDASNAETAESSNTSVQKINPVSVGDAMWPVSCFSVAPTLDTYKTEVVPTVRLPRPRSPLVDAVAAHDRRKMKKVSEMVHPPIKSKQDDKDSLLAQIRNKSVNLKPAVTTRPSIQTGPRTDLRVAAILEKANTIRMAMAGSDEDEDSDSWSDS

Row | Substance | effect of a mutation on the interaction [1] | effect of a mutation on the interaction [2] | effect of a mutation on the interaction [3] | effect of a mutation on the interaction [4]
1 | Rac-like GTP-binding protein ARAC2 (Arabidopsis thaliana (Mouse-ear cress)), Q38903 T20D | disrupting interaction |  |  | 
2 | Rac-like GTP-binding protein ARAC9 (Arabidopsis thaliana (Mouse-ear cress)), Q9XGU0 G27V |  | disrupting interaction | disrupting interaction | disrupting interaction
